Source: US20250257126A1 (CAMBRIDGE ENTERPRISE, published 2025)

T1: murine LGR5 transgene (mouse, UniProt Q9Z1P4 22-907)
T1 construct: whole, on cells; Overexpressed in HEK293T cells with N-terminal HA tag, V2 receptor tail and eGFP; also tested as lysate; also called mLGR5; mLGR5-eGFP
T1 sequence (looked up): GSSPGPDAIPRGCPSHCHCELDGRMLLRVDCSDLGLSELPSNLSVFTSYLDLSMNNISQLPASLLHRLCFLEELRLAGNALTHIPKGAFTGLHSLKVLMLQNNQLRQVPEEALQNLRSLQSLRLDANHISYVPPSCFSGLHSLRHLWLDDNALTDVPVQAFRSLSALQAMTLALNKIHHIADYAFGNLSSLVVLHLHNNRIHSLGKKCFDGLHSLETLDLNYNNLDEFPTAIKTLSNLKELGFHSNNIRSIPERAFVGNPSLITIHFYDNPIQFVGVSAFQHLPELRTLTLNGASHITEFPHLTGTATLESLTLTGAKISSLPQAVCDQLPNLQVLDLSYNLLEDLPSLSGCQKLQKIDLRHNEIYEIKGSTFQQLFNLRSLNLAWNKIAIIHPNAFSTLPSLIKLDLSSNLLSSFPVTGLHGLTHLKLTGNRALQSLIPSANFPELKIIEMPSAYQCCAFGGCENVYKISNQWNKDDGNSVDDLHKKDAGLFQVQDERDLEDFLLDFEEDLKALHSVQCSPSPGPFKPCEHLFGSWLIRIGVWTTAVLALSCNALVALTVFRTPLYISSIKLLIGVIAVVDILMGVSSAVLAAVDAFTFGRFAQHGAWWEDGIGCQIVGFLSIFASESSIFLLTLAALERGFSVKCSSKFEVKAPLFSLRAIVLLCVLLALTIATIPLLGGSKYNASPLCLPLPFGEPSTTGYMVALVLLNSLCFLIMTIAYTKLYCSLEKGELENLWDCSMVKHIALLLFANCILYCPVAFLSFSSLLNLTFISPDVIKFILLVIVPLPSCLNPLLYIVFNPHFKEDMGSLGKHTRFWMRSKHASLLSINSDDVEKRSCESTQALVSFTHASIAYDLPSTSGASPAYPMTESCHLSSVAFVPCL

T2: human LGR6 transgene (human, UniProt Q9HBX8 25-967)
T2 construct: whole, on cells; Overexpressed in HEK293T cells with N-terminal HA tag, V2 receptor tail and eGFP; also tested as lysate; also called hLGR6; LGR6-eGFP
T2 sequence (looked up): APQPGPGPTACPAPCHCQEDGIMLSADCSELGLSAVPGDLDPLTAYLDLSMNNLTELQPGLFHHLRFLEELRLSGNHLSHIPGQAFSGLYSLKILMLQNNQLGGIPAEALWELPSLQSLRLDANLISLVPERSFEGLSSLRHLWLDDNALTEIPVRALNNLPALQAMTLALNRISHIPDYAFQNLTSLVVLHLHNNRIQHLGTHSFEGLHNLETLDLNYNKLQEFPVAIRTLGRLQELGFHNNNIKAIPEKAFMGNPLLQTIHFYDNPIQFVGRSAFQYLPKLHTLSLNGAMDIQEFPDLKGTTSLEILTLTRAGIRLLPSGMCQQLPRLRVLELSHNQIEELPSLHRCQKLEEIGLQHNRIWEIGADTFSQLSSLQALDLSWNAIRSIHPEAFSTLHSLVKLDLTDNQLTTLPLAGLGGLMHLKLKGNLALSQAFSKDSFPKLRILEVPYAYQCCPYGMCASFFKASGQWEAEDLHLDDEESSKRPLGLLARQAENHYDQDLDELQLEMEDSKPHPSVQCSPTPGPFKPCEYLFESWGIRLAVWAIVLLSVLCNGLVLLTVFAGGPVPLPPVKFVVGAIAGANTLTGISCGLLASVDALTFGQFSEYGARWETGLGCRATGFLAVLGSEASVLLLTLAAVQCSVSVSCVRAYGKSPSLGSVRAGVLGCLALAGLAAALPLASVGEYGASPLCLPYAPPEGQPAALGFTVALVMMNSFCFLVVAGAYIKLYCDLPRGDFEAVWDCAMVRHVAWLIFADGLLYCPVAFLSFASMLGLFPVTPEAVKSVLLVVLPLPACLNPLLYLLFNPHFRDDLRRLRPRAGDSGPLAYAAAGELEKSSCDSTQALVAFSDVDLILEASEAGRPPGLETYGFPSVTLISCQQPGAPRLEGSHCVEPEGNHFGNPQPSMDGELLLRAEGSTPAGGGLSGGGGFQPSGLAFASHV

T3: murine LGR6 transgene (mouse, UniProt Q3UVD5 23-967)
T3 construct: whole, on cells; also called mLGR6
T3 sequence (looked up): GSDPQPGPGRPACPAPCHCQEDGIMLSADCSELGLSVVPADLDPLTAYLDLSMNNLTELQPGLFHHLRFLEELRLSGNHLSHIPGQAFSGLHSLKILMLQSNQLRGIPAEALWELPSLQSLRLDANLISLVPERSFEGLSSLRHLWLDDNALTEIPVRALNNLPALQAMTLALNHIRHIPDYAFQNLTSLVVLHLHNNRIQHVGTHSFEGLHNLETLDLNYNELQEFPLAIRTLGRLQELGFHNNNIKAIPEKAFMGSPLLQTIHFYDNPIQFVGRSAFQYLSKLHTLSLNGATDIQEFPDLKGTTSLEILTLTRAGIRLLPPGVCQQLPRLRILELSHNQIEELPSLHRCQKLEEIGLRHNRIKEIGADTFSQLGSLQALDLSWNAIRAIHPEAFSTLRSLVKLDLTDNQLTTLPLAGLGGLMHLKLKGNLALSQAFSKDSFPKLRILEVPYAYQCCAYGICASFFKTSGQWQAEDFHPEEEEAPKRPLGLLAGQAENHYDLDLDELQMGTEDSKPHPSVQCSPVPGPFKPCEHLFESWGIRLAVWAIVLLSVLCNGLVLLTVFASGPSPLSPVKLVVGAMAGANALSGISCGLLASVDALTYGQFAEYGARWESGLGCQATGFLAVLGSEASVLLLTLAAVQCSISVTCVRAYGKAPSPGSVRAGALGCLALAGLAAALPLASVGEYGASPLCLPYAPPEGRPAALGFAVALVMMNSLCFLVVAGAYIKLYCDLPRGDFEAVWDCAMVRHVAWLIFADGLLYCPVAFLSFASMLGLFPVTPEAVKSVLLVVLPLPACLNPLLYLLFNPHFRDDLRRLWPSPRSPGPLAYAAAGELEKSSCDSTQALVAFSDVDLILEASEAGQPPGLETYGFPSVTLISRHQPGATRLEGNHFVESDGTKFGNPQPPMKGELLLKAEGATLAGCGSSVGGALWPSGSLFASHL

B1: hybridoma clone 12 (antibody, V domains shown)
VH: EVQLQQSGPELVKPGASVKISCKASGYTFTDYYMNWVKQSHGKSLEWIGDINPNNGGTIYNQKFKGKATLTVDKSSSTAYMELRSLTSEDSAVYYCASGYLFDYWGPGTTLTVSS
VL: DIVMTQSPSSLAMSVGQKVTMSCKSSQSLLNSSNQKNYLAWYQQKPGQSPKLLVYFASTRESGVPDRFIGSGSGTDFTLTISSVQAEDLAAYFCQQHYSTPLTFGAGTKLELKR
notes: Murine antibody; also called antibody 12
B2: α-LGR5 variant 4 (antibody, human IgG1, kappa, V domains shown)
VH: QVQLVQSGAEVKKPGASVKVSCKASGYTFTNYWMQWVRQAPGQGLEWIGEIDPSDSYTNYNQKFQGRVTLTVDTSTSTAYMELSSLRSEDTAVYYCARSLSGYVDYWGQGTTVTVSS
VL: EIVMTQSPATLSLSPGERATLSCRASQDISNRLNWYQQKPGQAVRLLISYRSRRHTGIPARFSGSGSGTDYTLTISSLEPEDFAVYYCQQGNSLPPTFGGGTKLEIKR
notes: Humanized antibody; also called α-LGR5v4; clone 2.4

How the values were obtained:
murine LGR5 transgene = molecular target: T1, murine LGR5 transgene; experiment: western blot of lysates of HEK293T cells expressing the LGR transgenes
human LGR6 transgene = molecular target: T2, human LGR6 transgene; experiment: indirect immunofluorescence on HEK293T cells expressing human and murine LGR family transgenes (FIG. 14B)
murine LGR6 transgene = molecular target: T3, murine LGR6 transgene; experiment: as above

Binder	binding result (murine LGR5 transgene)	binding result (human LGR6 transgene)	binding result (murine LGR6 transgene)
B1	no binding	–	–
B2	–	no binding	no binding
